This is an account of results in US20150274820A1 (ESBATECH AN ALCON BIOMEDICAL RESEARCH UNIT, published 2015).

Where a chain is given by its changes, count along the chain named. Names may count otherwise.

Assay [1] addresses T1, recombinant human VEGF165 (human, UniProt P15692 27-191).
T1 construct: mature; Isoform VEGF165 of the entry; also called hVEGF165; hVEGF
Briefly: Biacore SPR, VEGF immobilized, pH 5. How it is done:
(§1) In this example, the Biacore-binding ability of scFvs was tested and the binding affinity was measured using the exemplary surface plasmon resonance method with BIAcore™-T100. The VEGF proteins, tested for binding by these scFv candidates, in this example and later examples include purified Escherichia coli-expressed recombinant human VEGF₁₆₅ (PeproTech EC Ltd.), recombinant human VEGF₁₂₁ (PeproTech EC Ltd.), recombinant human VEGF₁₁₀ (ESBATech AG), recombinant murine VEGF₁₆₄ (PeproTech EC Ltd.), recombinant rat VEGF₁₆₄ (Biovision), recombinant rabbit VEGF₁₁₀ (ESBATech AG), and recombinant human PLGF (PeproTech EC Ltd.). For the surface plasmon resonance experiment, carboxymethylated dextran biosensor chips (CM4, GE Healthcare) were activated with N-ethyl-N′-(3-dimethylaminopropyl) carbodiimide hydrochloride and N-hydroxysuccinimide according to the supplier's instructions. Each of the 6 different VEGF forms, as exemplified above, was coupled to 1 of the 4 different flow cells on a CM4 sensor chip using a standard amine-coupling procedure. […] The 4th flow cell of each chip was treated similarly except no proteins were immobilized prior to blocking, and the flow cell was used as in-line reference. […] Dissociation of the anti-VEGF scFv from the VEGF on the CM4 chip was allowed to proceed for 10 min at 25° C. Sensorgrams were generated for each anti-VEGF scFv sample after in-line reference cell correction followed by buffer sample subtraction. The apparent dissociation rate constant (kd), the apparent association rate constant (kₐ) and the apparent dissociation equilibrium constant (KD) were calculated using one-to-one Langmuir binding model with BIAcore T100 evaluation Software version 1.1.

The target in assay [2] is T1, recombinant human VEGF165. Briefly: VEGFR1/Fc competition ELISA on coated hVEGF165; ratio to Lucentis. How it is done: After 30-60 min of incubation at room temperature, the mixtures were transferred to the human VEGF₁₆₅ immobilized plate and incubated for 90 min. […] Optical density at 450 nm (OD 450 nm) was measured using a Sunrise microplate reader (Tecan). Data were analyzed as above, and EC₅₀ values were calculated from the dose-response curves of the scFvs.

Assay [3] has as its target T1, recombinant human VEGF165. Briefly: Biacore SPR, VEGF immobilized, pH 7.4. How it is done:
as §1

In assay [4] the target is T2, recombinant human VEGF110 (human, UniProt P15692-4 27-136, limits assumed).
T2 construct: Made in house; also called hVEGF110
T2 sequence (looked up): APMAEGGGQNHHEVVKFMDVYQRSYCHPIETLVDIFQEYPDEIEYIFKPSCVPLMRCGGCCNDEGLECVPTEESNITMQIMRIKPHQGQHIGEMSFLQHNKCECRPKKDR
Put plainly: Biacore SPR, VEGF immobilized, pH 5. How it is done:
as §1

The target in assay [5] is T3, recombinant human VEGF121 (human, UniProt P15692 27-147).
T3 construct: mature; Isoform VEGF121 of the entry; also called hVEGF121
T3 sequence (looked up): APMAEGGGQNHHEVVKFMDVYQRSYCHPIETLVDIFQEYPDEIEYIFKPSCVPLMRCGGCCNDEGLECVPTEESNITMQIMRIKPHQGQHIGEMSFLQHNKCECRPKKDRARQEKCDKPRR
Put plainly: Biacore SPR, VEGF immobilized, pH 5. How it is done: as §1

Assay [6] has as its target T1, recombinant human VEGF165. Put plainly: Biacore SPR, VEGF immobilized, pH 5. How it is done:
as §1
This is another data set of the same source.

Another assay addresses T4, recombinant human PLGF (human, UniProt P49763-2 19-149, limits assumed).
T4 construct: Negative control; also called PIGF
T4 sequence (looked up): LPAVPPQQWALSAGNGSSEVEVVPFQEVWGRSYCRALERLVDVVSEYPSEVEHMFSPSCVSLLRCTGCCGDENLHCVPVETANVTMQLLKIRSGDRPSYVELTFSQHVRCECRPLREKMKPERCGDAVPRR
Briefly: Biacore SPR, PlGF immobilized, pH 5. How it is done: as §1

Assay [7] deals with T1, recombinant human VEGF165. Briefly: cell-based or functional assay.
For assay [8], the target named is recombinant murine VEGF164 (mouse) (UniProt Q00731). Briefly: Biacore SPR, VEGF immobilized, pH 5.
Assay [9] deals with recombinant rat VEGF164 (rat) (UniProt P16612). Put plainly: Biacore SPR, VEGF immobilized, pH 5.
Assay [10] concerns the target T1, recombinant human VEGF165. Briefly: Biacore SPR, VEGF immobilized, pH 5. How it is done: as §1, with “1.1. […]” for “1.1.”
This is another data set of the same source.

In assay [11] the target is recombinant murine VEGF164 (mouse) (UniProt Q00731). Briefly: Biacore SPR; ratio to hVEGF165.
In assay [12] the target is recombinant rat VEGF164 (rat) (UniProt P16612). Briefly: Biacore SPR; ratio to hVEGF165.

T1 sequence (P15692 other isoform, or with tags, fused parts or gaps): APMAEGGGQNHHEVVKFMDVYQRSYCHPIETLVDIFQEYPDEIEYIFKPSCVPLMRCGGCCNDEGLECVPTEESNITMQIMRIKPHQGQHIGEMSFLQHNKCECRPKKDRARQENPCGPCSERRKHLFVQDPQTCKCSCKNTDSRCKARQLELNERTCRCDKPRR

B1: 435-max (scFv)
scFv: EIVMTQSPSTLSASVGDRVIITCQASQSIGSSLAWYQQKPGKAPKLLIYTAANLASGVPSRFSGSRSGAEFTLTISSLQPDDFATYYCQNFATSDTVTFGQGTKLTVLGGGGGSGGGGSGGGGSGGGGSEVQLVESGGGLVQPGGSLRLSCKASGFSLNTNYWMCWVRQAPGKGLEWVGCMYTGSYNRAYYASWAKGRFTSSKDTSKNTVYLQMNSLRAEDTAVYYCAKGSNWYSDLWGQGTLVTVSS
notes: the scFv entry is used; also called Protein Nr; 945
Regarding B1, in [1], the koff was determined as 0.000755 s⁻¹ and the on-rate (kon) amounted to 167000 M⁻¹ s⁻¹. In addition, in assay [2], the “Rel. activity hVEGR1 comp. ELISA (EC50Luc[nM]/EC50test[nM])” value is 0.00039. Also, in assay [3], the koff was 0.000104 s⁻¹ and the on-rate constant (kon) turned out to be 1.13e+06 M⁻¹ s⁻¹.

B2: 567-max (scFv)
scFv: EIVMTQSPSTLSASVGDRVIITCQADQSIYIWLSWYQQKPGKAPKLLIYKASTLESGVPSRFSGSGSGTQFTLTISSLQPDDFATYYCQNNAHYSTNGGTFGQGTKLTVLGGGGGSGGGGSGGGGSGGGGSEVQLVESGGGLVQPGGSLRLSCSVSGFSLSDYYMCWVRQAPGKGLEWVGCLDYFGSTDDASWAKGRFTISKDTSKNTVYLQMNSLRAEDTAVYYCARTDDSRGWGLNIWGQGTLVTVSS
notes: VL and VH tied by name; also called Protein Nr; 874
Regarding B2, the off-rate (koff) in [4] was 3.27e-05 s⁻¹; in [5], 5.76e-05 s⁻¹; in assay [6], 0.000226 s⁻¹; in assay [1] it was 0.000226 s⁻¹; in assay [3] it was 0.000167 s⁻¹; in assay [8] it was 0.000152 s⁻¹. In addition, the off-rate (koff) in assay [9] was found to be 0.000203 s⁻¹. Also, the kon in assay [4] was determined as 1e+06 M⁻¹ s⁻¹; in assay [5] it was 1.13e+06 M⁻¹ s⁻¹; in [6], 1.2e+06 M⁻¹ s⁻¹; in assay [1], 1.2e+06 M⁻¹ s⁻¹; in [3], 1.17e+06 M⁻¹ s⁻¹; in assay [8] it was 1.64e+06 M⁻¹ s⁻¹. For the same molecule, in assay [9], the kon was found to be 1.36e+06 M⁻¹ s⁻¹. The binding result in the assay with recombinant human PLGF was “no binding”. In addition, the “Rel. activity in HUVEC assay (EC50Luc[nM]/EC50test[nM])” value in assay [7] amounted to 0.0086.

B3: 567-min (scFv)
scFv: B2 scFv with T69A, Q70E, S154A, V155A, G180S, K202R, T204N, V209L, R228K
notes: also called Protein Nr; 884
As to B3, the koff in assay [4] turned out to be 3.82e-05 s⁻¹; in [5] it was 4.54e-05 s⁻¹; in assay [6] it was 0.000461 s⁻¹; in [1], 0.000461 s⁻¹; in [3], 0.0007 s⁻¹; in assay [8], 0.00035 s⁻¹. Moreover, in assay [9], the koff is 0.00048 s⁻¹. Also, the kon was found to be 1.52e+06 M⁻¹ s⁻¹ in [4]; 1.89e+06 M⁻¹ s⁻¹ in assay [5]; 2.01e+06 M⁻¹ s⁻¹ in assay [6]; 2.01e+06 M⁻¹ s⁻¹ in assay [1]; 1.11e+06 M⁻¹ s⁻¹ in assay [3]; 2.06e+06 M⁻¹ s⁻¹ in assay [8]. The kon in assay [9] stood at 1.72e+06 M⁻¹ s⁻¹. In the assay with recombinant human PLGF, the binding result is listed as “no binding”.

B4: 578min_max T84N_V89L (scFv)
scFv: EIVMTQSPSTLSASVGDRVIITCQASEIIHSWLAWYQQKPGKAPKLLIYLASTLASGVPSRFSGSGSGAEFTLTISSLQPDDFATYYCQNVYLASTNGANFGQGTKLTVLGGGGGSGGGGSGGGGSGGGGSEVQLVESGGGLVQPGGSLRLSCTASGFSLTDYYYMTWVRQAPGKGLEWVGFIDPDDDPYYATWAKGRFTISRDNSKNTLYLQMNSLRAEDTAVYYCAGGDHNSGWGLDIWGQGTLVTVSS
notes: the VH entry already carries T84N and V89L; tied by name; also called Protein No. 1008
For B4, in [10], the Kd came out at 1.59 nM, the koff worked out at 0.0018 s⁻¹ and the kon worked out at 1.13e+06 M⁻¹ s⁻¹. Moreover, in [11], the relative value KdhVEGF165/KdmVEGF164 was determined as 1 and the relative value kdhVEGF165/kdmVEGF164 amounted to 1. Further, in [12], the relative value KdhVEGF165/KdmVEGF164 (rat block) is 0.8 and the relative value kdhVEGF165/kdmVEGF164 (rat block) stood at 1.2. For the same molecule, in assay [8], the Kd was 1.53 nM, the koff stood at 0.00188 s⁻¹ and the kon was 1.23e+06 M⁻¹ s⁻¹. In addition, in [9], the dissociation constant (Kd) was 1.89 nM, the off-rate constant (koff) was determined as 0.00152 s⁻¹ and the kon came out at 802000 M⁻¹ s⁻¹.

B5: 578min_max T84N_V89L_DHP (scFv)
scFv: B4 scFv with L142S, V224T, L246T
Take B5: in assay [11], the relative value KdhVEGF165/KdmVEGF164 amounted to 1.8 and the relative value kdhVEGF165/kdmVEGF164 is 1.4. In assay [12], the relative value KdhVEGF165/KdmVEGF164 (rat block) stood at 1.5 and the relative value kdhVEGF165/kdmVEGF164 (rat block) came to 1.6. Besides, in assay [8], the Kd turned out to be 1.46 nM, the off-rate constant (koff) was determined as 0.00216 s⁻¹ and the kon stood at 1.47e+06 M⁻¹ s⁻¹. For the same molecule, in assay [9], the Kd was determined as 1.82 nM, the koff amounted to 0.0019 s⁻¹ and the kon was found to be 1.04e+06 M⁻¹ s⁻¹.

B6: 578minmax FW1.4_DHP (scFv)
scFv: B4 scFv with L142S, N205T, L210V, V224T, L246T
notes: tied by name only
Regarding B6, in [10], the Kd worked out at 0.576 nM, the koff came to 0.000409 s⁻¹ and the kon came out at 711000 M⁻¹ s⁻¹. In assay [11], the relative value KdhVEGF165/KdmVEGF164 turned out to be 0.9 and the relative value kdhVEGF165/kdmVEGF164 is 0.6. Further, in assay [12], the relative value KdhVEGF165/KdmVEGF164 (rat block) came to 0.7 and the relative value kdhVEGF165/kdmVEGF164 (rat block) turned out to be 0.6. For the same molecule, in [8], the Kd amounted to 0.608 nM, the koff is 0.000669 s⁻¹ and the kon stood at 1.1e+06 M⁻¹ s⁻¹. In [9], the Kd was 0.845 nM, the koff was 0.000676 s⁻¹ and the on-rate constant (kon) came out at 800000 M⁻¹ s⁻¹.
